± gives the uncertainty stated by the source.

The data set is described as follows: amyloid nucleation score (Sup35N fusion, yeast selection) (log enrichment); library NNK1; higher = more nucleation; inactive = no reads after selection. In a few lines: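 Nucleation score is defined as the DiMSum log enrichment of output over input reads, with centring on the mode score of non-aggregating sequences. A minimum of 100 input reads was required for each sequence. Reads came from Illumina sequencing of plasmid inserts from psi-negative yeast expressing Sup35N fused to peptides of 20 random codons, induced with 100 μM copper sulfate for 24 hours and grown 7 days at 30°C on medium lacking adenine and uracil.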
Consider YVDLFIMPIACGTSVMHLNL, for which the amyloid nucleation score turned out to be 5.464 ± 0.047. The value for YVEPSF was -0.083 ± 0.97; that for YVEQYLWDSDWSSGI was 0.974 ± 0.14; that for YVFRPLVERDRSLMKLVQQL was “inactive”. The same measure for YVGADMELHSRMVTDTYFAS: -0.707 ± 1.1; for YVGRNLWK: 0.402 ± 0.47.

Turning to YVIEIMISHVPAIWRGYTCS, the amyloid nucleation score was determined as 0.554 ± 0.71. The same measure for YVLKCKNILMYEYLNEVKIS: 0.219 ± 0.27.

As to YVLYCICV, the amyloid nucleation score worked out at 5.95 ± 0.073. The value for YVMAVI was 1.64 ± 0.5; that for YVMSS was -0.369 ± 0.41; that for YVQLI was -0.256 ± 0.39.

As to YVSAGWVYRSYFGIIFILRN, the amyloid nucleation score is -0.873 ± 1.1. The value for YVSEEMNGLVMYQSNWGSVT was 0.224 ± 0.54; that for YVSYDQTNSAAYYVRVRLRF was 0.947 ± 0.73; that for YVVCRTFSVPAYSLRLQLRR was 0.353 ± 0.26. The same measure for YVYDSVAVHGGKTLEGEGYG: 0.035 ± 0.38; for YVYSYLGGARGCVFKEKDPP: 0.586 ± 0.47; for YWCMLARSLDDEGLFWRTGG: -0.38 ± 0.33.

Take YWGPKDAMGMSFIVSWDGPP: the amyloid nucleation score was 0.367 ± 0.31. The value for YWSFGGWVAQRVCMESVFVK was -2.27 ± 1.6; that for YWVWYDVYGSWLGSWYYKRG was 0.278 ± 0.52; that for YWVYSSRGCA was “inactive”. The same measure for YWWRWSVSI: 0.386 ± 0.33; for YYAHSGMWYAMSDQKGAVG: 0.552 ± 0.67; for YYCTQRLNSHSVLMSLADRW: 0.035 ± 0.76. The same measure for YYDFGIIRSCVFSNGCVGMY: 1.62 ± 0.8. YYDTEGIHHSSIQRCQIRAG registered an amyloid nucleation score of 1.16 ± 0.58. The same measure for YYQRGVDYNIVFLRT: 1.16 ± 0.52; for YYVMRYDASLYDKRKERVFG: 0.851 ± 0.39.

The values above are taken from the supplement of paper PMC12042874.
